{"source": "patent US20020164657A1", "about": "(published 2002)", "biological_target": "T1, Aβ 1-42", "T1 construct": "Obtained from Bachem, dissolved in 50% DMSO and used as the aggregated (insoluble) form; also called aggregated Aβ 1-42; beta-amyloid peptide 1-42", "T1 sequence (peptide, as listed by the source)": "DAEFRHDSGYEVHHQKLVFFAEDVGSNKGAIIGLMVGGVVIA", "assay": "co-sedimentation with Aβ 1-42, SDS-PAGE densitometry", "protocol": "Samples were centrifuged at 12,000×g in a micro centrifuge for 5 min. The supernatants were removed, and the pellets washed once with 40 mM Tris, pH 7.5, 10 mM MgCI₂, 1 mM DTT and centrifuged again. The pellets were resuspended in 100 μl buffer, electrophoresed on 12% SDS-PAGE next to the corresponding supernatant, and stained with Coomassie Blue R-250.", "data": [{"binder": "N-terminal tau (M1-238S) (other, also called N-terminal tau domain (IM-238S)) MAEPRQEFEVMEDHAGTYGLGDRKDQGGYTMHQDQEGDTDAGLKAEEAGIGDTPSLEDEAAGHVTQARMVSKSKDGTGSDDKKAKGADGKTKIATPRGAAPPGQKGQANATRIPAKTPPAPKTPPSSGEPPKSGDRSGYSSPGSPGTPGSRSRTPSLPTPPTREPKKVAVVRTPPKSPSS", "values": [{"measurement": "binding result", "value": "no binding"}]}]}
